T1: TMPRSS6 expressed in transfected HepG2 cells (UniProt Q8IU80 1-811, limits assumed)
T1 sequence (looked up): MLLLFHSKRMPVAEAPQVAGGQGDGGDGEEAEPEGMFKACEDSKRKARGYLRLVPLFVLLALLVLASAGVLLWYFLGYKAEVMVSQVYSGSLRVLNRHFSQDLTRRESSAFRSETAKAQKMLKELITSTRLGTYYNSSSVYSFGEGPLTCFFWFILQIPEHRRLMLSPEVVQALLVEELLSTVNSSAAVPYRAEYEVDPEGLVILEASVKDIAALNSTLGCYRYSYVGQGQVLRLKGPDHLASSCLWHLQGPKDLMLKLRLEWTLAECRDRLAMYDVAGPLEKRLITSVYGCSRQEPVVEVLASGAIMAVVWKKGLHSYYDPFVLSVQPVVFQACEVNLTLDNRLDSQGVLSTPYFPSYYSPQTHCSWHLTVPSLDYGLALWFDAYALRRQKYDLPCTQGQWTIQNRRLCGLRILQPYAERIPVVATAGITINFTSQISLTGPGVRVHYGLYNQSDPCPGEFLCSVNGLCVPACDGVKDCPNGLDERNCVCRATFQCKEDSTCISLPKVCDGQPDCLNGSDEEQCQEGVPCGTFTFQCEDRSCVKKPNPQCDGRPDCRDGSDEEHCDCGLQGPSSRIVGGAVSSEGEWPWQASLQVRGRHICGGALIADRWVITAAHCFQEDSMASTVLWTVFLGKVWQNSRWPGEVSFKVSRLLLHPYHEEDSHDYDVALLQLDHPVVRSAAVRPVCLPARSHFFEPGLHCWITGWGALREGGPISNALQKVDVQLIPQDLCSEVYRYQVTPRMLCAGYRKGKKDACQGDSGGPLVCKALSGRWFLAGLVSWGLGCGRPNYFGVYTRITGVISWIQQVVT

B1: humanized anti-TMPRSS6 antibody variant hzMWTx-002Var (antibody, human IgG1, kappa, N297A, V domains shown)
VH: EVQLVQSGAEVKKPGASVKVSCKASGFNIKDYYIHWVRQATGQGLEWMGRIDPEDAESEYAPKFQGRVTITADTSTDTAYMELSSLRSEDTAVYYCTRGDSMMVTYFDYWGQGTLVTVSS
VL: DIQMTQSPSSLSASVGDRVTITCKASQDVSTAVAWYQQKPGKAPKLLIYWAFTRHTGVPSRFSGSGSGTDYALTISSLQPEDFATYYCQQHYRSPWTFGGGTKVEIKR
B2: MWTx-003 anti-TMPRSS6 antibody (antibody, mouse IgG2b, kappa, V domains shown)
VH: EVQLQQSGAELVKPGASVKLSCTASGFNIEDYYIHWVKERTEQGLEWIGRIDPEDGETTYAPQFQGKATIIPDTSSNTAYMQLSSLTSEDAAVYYCARSIYLDPMDYWGQGTSVTVSS
VL: DIVMTQSHKFMSTSVGDRVSITCKASQDVTTAVAWYQQKPGQSPKILIYWATTRHTGVPDRFTGSISGTTYILTISSVQAEDLALYYCQQHYSTPYTFGGGTKLEIKR
B3: humanized anti-TMPRSS6 antibody variant hzMWTx-003Var (antibody, human IgG1, kappa, L234A L235A, V domains shown)
VH: QVQLVQSGAEVKKPGASVKVSCKASGFNIEDYYMHWVRQAPGQRLEWMGRIDPEDAETTYSPKFQGRVTIIPDTSANTAYMELSSLRSEDTAVYYCARSIYLDPMDYWGQGTLVTVSS
VL: DIQMTQSPKSLSASVGDRVTITCRASQDVTTALAWYQQKPGQSPKLLIYWATTRHSGVPSRFSGSGSGTDFTLTISSLQPEDFATYYCQQHYSTPYTFGQGTKLEIKR
B4: MWTx-001 anti-TMPRSS6 antibody (antibody, mouse IgG2a, kappa, V domains shown)
VH: QVQLQQPGAELAKPGASVKMSCKASGYTFTSYWITWVKQRPGQDLEWIGNIYPGSGSTYYNEKFKSKATLTVDTSSRTAYMQLSSLTSADSAVYYCAPYDSDYAMDYWGQGTSVTVSS
VL: DIKMTQSPSSMYASLGERVTITCKASQDINNYLSWFQQKPGKSPKTLIYRANRLVDGVPSRVSGSGSGQDYSLTISSLEYEDVGIYFCLQYDEFPLTFGAGTKLELKR
B5: humanized anti-TMPRSS6 antibody variant hzMWTx-001Var (antibody, human IgG1, kappa, N297A, V domains shown)
VH: EVQLVQSGAEVKKPGASVKVSCKASGYTFTSYWITWVRQAPGQRLEWIGNIYPGSGSTYYNEKFKSKATITRDTSSRTAYMELSSLRSEDTAVYYCAPYDADYAMDYWGQGTLVTVSS
VL: DIQMTQSPSSLSASVGDRVTITCKASQDISNYLSWFQQKPGKAPKLLIYRANRLVEGVPSRFSGSGSGTDFTLTISSLQPEDFATYFCLQYDEFPLTFGGGTKVEIKR

target: T1, TMPRSS6 expressed in transfected HepG2 …; assay: cell-based or functional assay

Compared with B1, B2 is 6.7-fold higher in “HAMP promoter activity (HAMP-luciferase reporter assay in HepG2 cells expressing TMPRSS6), EC50” value (from here on “HAMP promoter activity”): 0.3 µg/mL for the first, 2 µg/mL for the second.

Compared with B3, B4 is 10-fold higher in “HAMP promoter activity” value: 0.3 µg/mL for the first, 3 µg/mL for the second.

B5 was tested, and the “HAMP promoter activity” value was 0.8 µg/mL.

From patent US20230203196A1 (MABWELL THERAPEUTICS, published 2023)
